Experimental data as given in patent US20150023971A1.

How the values were obtained:
DFAKNFVQ = target: T1, DFAKNFVQ; assay: SPOT length analysis, dot 43, HRP-S-protein detection
T1 sequence (peptide): DFAKNFVQ

[1] = target: T2, …; assay: SPOT length analysis, dot 19, HRP-S-protein detection
T2 sequence (peptide): RSSDFAKNFVQ

KNFV [2] = target: T3, KNFV; assay: SPOT length analysis, dot 88, HRP-S-protein detection
T3 sequence (peptide): KNFV

[3] = target: T4, …; assay: SPOT length analysis, dot 33, anti-histidine detection
T4 sequence (peptide): SSDFAKNFV

IFRSSD = target: T5, IFRSSD; assay: SPOT length analysis, dot 57, anti-histidine detection
T5 sequence (peptide): IFRSSD

KNFVQTD = target: T6, KNFVQTD; assay: SPOT length analysis, dot 55, anti-histidine detection
T6 sequence (peptide): KNFVQTD

FAKNFVQ = target: T7, FAKNFVQ; assay: SPOT length analysis, dot 53, HRP-S-protein detection
T7 sequence (peptide): FAKNFVQ

NFVQ [4] = target: T8, NFVQ; assay: SPOT length analysis, dot 89, HRP-S-protein detection
T8 sequence (peptide): NFVQ

RSSDF = target: T9, RSSDF; assay: SPOT length analysis, dot 70, HRP-S-protein detection
T9 sequence (peptide): RSSDF

[5] = target: T10, …; assay: SPOT length analysis, dot 15, HRP-S-protein detection
T10 sequence (peptide): SSDFAKNFVQTD

[6] = target: T11, …; assay: SPOT length analysis, dot 35, HRP-S-protein detection
T11 sequence (peptide): DFAKNFVQT

[7] = target: T12, …; assay: SPOT length analysis, dot 26, HRP-S-protein detection
T12 sequence (peptide): SSDFAKNFVQ

KNFVQT = target: T13, KNFVQT; assay: SPOT length analysis, dot 65, anti-histidine detection
T13 sequence (peptide): KNFVQT

FAKNF [8] = target: T14, FAKNF; assay: SPOT length analysis, dot 74, HRP-S-protein detection
T14 sequence (peptide): FAKNF

KNFV [9] = target: T3, KNFV; assay: SPOT length analysis, dot 88, anti-histidine detection
[10] = target: T15, …; assay: SPOT length analysis, dot 34, HRP-S-protein detection
T15 sequence (peptide): SDFAKNFVQ

[11] = target: T16, …; assay: SPOT length analysis, dot 10, anti-histidine detection
T16 sequence (peptide): RSSDFAKNFVQTD

[12] = target: T15, …; assay: SPOT length analysis, dot 34, anti-histidine detection
SSDF = target: T17, SSDF; assay: SPOT length analysis, dot 83, HRP-S-protein detection
T17 sequence (peptide): SSDF

[13] = target: T18, …; assay: SPOT length analysis, dot 25, HRP-S-protein detection
T18 sequence (peptide): RSSDFAKNFV

[14] = target: T19, …; assay: SPOT length analysis, dot 6, anti-histidine detection
T19 sequence (peptide): FRSSDFAKNFVQTD

NFVQ [15] = target: T8, NFVQ; assay: SPOT length analysis, dot 89, anti-histidine detection
[16] = target: T20, …; assay: SPOT length analysis, dot 13, anti-histidine detection
T20 sequence (peptide): FRSSDFAKNFVQ

FVQT = target: T21, FVQT; assay: SPOT length analysis, dot 90, anti-histidine detection
T21 sequence (peptide): FVQT

VQTD [17] = target: T22, VQTD; assay: SPOT length analysis, dot 91, anti-histidine detection
T22 sequence (peptide): VQTD

[18] = target: T20, …; assay: SPOT length analysis, dot 13, HRP-S-protein detection
AKNFVQ = target: T23, AKNFVQ; assay: SPOT length analysis, dot 64, HRP-S-protein detection
T23 sequence (peptide): AKNFVQ

AKNFV = target: T24, AKNFV; assay: SPOT length analysis, dot 75, HRP-S-protein detection
T24 sequence (peptide): AKNFV

SDFA = target: T25, SDFA; assay: SPOT length analysis, dot 84, anti-histidine detection
T25 sequence (peptide): SDFA

[19] = target: T4, …; assay: SPOT length analysis, dot 33, HRP-S-protein detection
[20] = target: T26, …; assay: SPOT length analysis, dot 14, anti-histidine detection
T26 sequence (peptide): RSSDFAKNFVQT

[21] = target: T27, …; assay: SPOT length analysis, dot 16, anti-histidine detection
T27 sequence (peptide): RIFRSSDFAKN

FRSSD = target: T28, FRSSD; assay: SPOT length analysis, dot 69, HRP-S-protein detection
T28 sequence (peptide): FRSSD

[22] = target: T29, sortilin peptide … (synthetic, soluble); assay: SPOT length analysis, dot 11 (peptide here cellulose-bound), HRP-S-protein detection
T29 sequence (peptide): RIFRSSDFAKNF

FAKNFV = target: T30, FAKNFV; assay: SPOT length analysis, dot 63, anti-histidine detection
T30 sequence (peptide): FAKNFV

DFAK = target: T31, DFAK; assay: SPOT length analysis, dot 85, HRP-S-protein detection
T31 sequence (peptide): DFAK

FRSSDFAK = target: T32, FRSSDFAK; assay: SPOT length analysis, dot 39, anti-histidine detection
T32 sequence (peptide): FRSSDFAK

FAKNFVQT = target: T33, FAKNFVQT; assay: SPOT length analysis, dot 44, HRP-S-protein detection
T33 sequence (peptide): FAKNFVQT

NFVQTD = target: T34, NFVQTD; assay: SPOT length analysis, dot 66, anti-histidine detection
T34 sequence (peptide): NFVQTD

[23] = target: T29, sortilin peptide … (synthetic, soluble); assay: SPOT length analysis, dot 11 (peptide here cellulose-bound), anti-histidine detection
VQTD [24] = target: T22, VQTD; assay: SPOT length analysis, dot 91, HRP-S-protein detection
DFAKNFV = target: T35, DFAKNFV; assay: SPOT length analysis, dot 52, anti-histidine detection
T35 sequence (peptide): DFAKNFV

[25] = target: T36, …; assay: SPOT length analysis, dot 21, HRP-S-protein detection
T36 sequence (peptide): SDFAKNFVQTD

FRSS = target: T37, FRSS; assay: SPOT length analysis, dot 81, HRP-S-protein detection
T37 sequence (peptide): FRSS

FAKNF [26] = target: T14, FAKNF; assay: SPOT length analysis, dot 74, anti-histidine detection
[27] = target: T38, …; assay: SPOT length analysis, dot 7, HRP-S-protein detection
T38 sequence (peptide): RIFRSSDFAKNFV

RSSDFAK = target: T39, RSSDFAK; assay: SPOT length analysis, dot 49, HRP-S-protein detection
T39 sequence (peptide): RSSDFAK

[28] = target: T40, …; assay: SPOT length analysis, dot 22, anti-histidine detection
T40 sequence (peptide): RIFRSSDFAK

SSDFAK = target: T41, SSDFAK; assay: SPOT length analysis, dot 60, HRP-S-protein detection
T41 sequence (peptide): SSDFAK

B1: recombinant his-S-tagged pro-domain of human BDNF (residues Ala1-Arg110), from pET-30 Xa/LIC, E. coli (protein, not shown: small tags and cut ends)
chain: APMKEANIRGQGGLAYPGVRTHGTLESVNGPKAGSGLTSLADTFEHVIEELLDEDQKVRPNEENNKDADLYTSRVMLSSQVPLEPPLLFLLEEYKNYLDAANMSMRVRR
BLU Sprotein (DFAKNFVQ): 14700 BLU
BLU Sprotein [1]: 22400 BLU
BLU Sprotein (KNFV [2]): 13800 BLU
BLU His [3]: 18900 BLU
BLU His (IFRSSD): 17900 BLU
BLU His (KNFVQTD): 18300 BLU
BLU Sprotein (FAKNFVQ): 20300 BLU
BLU Sprotein (NFVQ [4]): 13400 BLU
BLU Sprotein (RSSDF): 15500 BLU
BLU Sprotein [5]: 22400 BLU
BLU Sprotein [6]: 19500 BLU
BLU Sprotein [7]: 18500 BLU
BLU His (KNFVQT): 15400 BLU
BLU Sprotein (FAKNF [8]): 17500 BLU
BLU His (KNFV [9]): 14900 BLU
BLU Sprotein [10]: 18900 BLU
BLU His [11]: 19800 BLU
BLU His [12]: 18400 BLU
BLU Sprotein (SSDF): 14000 BLU
BLU Sprotein [13]: 25400 BLU
BLU His [14]: 18800 BLU
BLU His (NFVQ [15]): 14700 BLU
BLU His [16]: 25800 BLU
BLU His (FVQT): 15600 BLU
BLU His (VQTD [17]): 15100 BLU
BLU Sprotein [18]: 199000 BLU
BLU Sprotein (AKNFVQ): 14100 BLU
BLU Sprotein (AKNFV): 15900 BLU
BLU His (SDFA): 14200 BLU
BLU Sprotein [19]: 19000 BLU
BLU His [20]: 24700 BLU
BLU His [21]: 53000 BLU
BLU Sprotein (FRSSD): 15000 BLU
BLU Sprotein [22]: 166000 BLU
BLU His (FAKNFV): 142000 BLU
BLU Sprotein (DFAK): 13300 BLU
BLU His (FRSSDFAK): 19000 BLU
BLU Sprotein (FAKNFVQT): 23600 BLU
BLU His (NFVQTD): 15400 BLU
BLU His [23]: 100000 BLU
BLU Sprotein (VQTD [24]): 13800 BLU
BLU His (DFAKNFV): 17300 BLU
BLU Sprotein [25]: 16900 BLU
BLU Sprotein (FRSS): 37000 BLU
BLU His (FAKNF [26]): 31900 BLU
BLU Sprotein [27]: 168000 BLU
BLU Sprotein (RSSDFAK): 16400 BLU
BLU His [28]: 45500 BLU
BLU Sprotein (SSDFAK): 15900 BLU
